This test deals with ESb mouse T-lymphoma cells. The experiment in a line: ESb T-lymphoma spontaneous liver metastasis and survival. Type of test: in vivo. The following applies: ESb, mAb 500 μg/mouse every other day, 3 weeks. Here is the method: Lymphoma cells were also inoculated subcutaneously at the right flank of 6-weeks-old NOD/SCID mice (human cell lines) or C57BL/6 mice (E1-4 mouse lymphoma cells) (n=7). Mice were treated with heparanase inhibitors (PG545; SST0001) or neutralizing antibodies and xenografts size was determined by externally measuring the tumors in 2 dimensions using a caliper. At the end of the experiment, mice were sacrificed; tumor xenografts were removed, weighed and fixed for histological and immunohistochemical analyses (Weissmann et al, 2016, Proc Natl Acad Sci USA 113:704-709). ESb mouse T-lymphoma cells (5×10^5) were similarly inoculated subcutaneously into SCID mice and spontaneous metastasis to the liver (Vlodaysky et al., 1983, Cancer Res 43:2704-2711) was examined after 3 weeks of treatment with PG545 or the neutralizing mAb, as described above. All animal experiments were approved by the Animal Care Committee of the Technion, Haifa, Israel.
FIG. 3A. HEK 293 cells were incubated with latent 65 kDa (upper panel) or GS3 constitutively active heparanase (1 μg/ml; third panel) and the indicated mAbs (10 μg/ml). The cell medium was aspirated at the time designated and cell lysates were subjected to immunoblotting applying anti-heparanase antibody (upper and third panels). […] Heparanase-transfected 293 cells were grown with control mouse IgM or mAb 9E8 for two days. Cells were then fixed with methanol and subjected to immunofluorescent staining applying anti heparanase antibody (second panel) or lysed and subjected to immunoblotting applying anti-heparanase antibody (fourth panel). Purified recombinant active heparanase (200 ng) was pre-incubated with control mouse IgM ( ? ), mAb 8A5 ( ? ), mAb 9E8 ( ? ), all at 2 μg/ml, for 2 h in serum-free RPMI medium on ice. The mixture was then applied onto ^35S-labeled ECM-coated dishes and heparanase activity was determined as described above (lower panel). FIG. 3B, C. […] Quantification of the extent of CD45 staining is shown graphically in the lower panel. […]

B1: mAb 9E8: monoclonal IgM raised against KKDC peptide (Lys158-Asn171) of heparanase; VH SEQ ID NO: 7, VL SEQ ID NO: 8 (antibody)
VH: EVKLLESGGGLVQPGGSLKLSCAASGFDFSRYWMSWVRQAPGKGLEWIGEINPDSSTINYTPSLKDKFIISRDNAKNTLYLQMSKVRSEDTALYYCARRGYEGNYAMDYWGQGTSVTVSSESQSFPNVFPLVSCESPLSDKNLVAMGCLAR
VL: DIVMTQAAPSVPVTPGESVSISCRSSKSLLHSNGNTYLYWFLQRPGQSPQLLIYRMSNLASGVPDRFSGSGSGTAFTLRISRVEAEDVGVYYCMQHLEYPFTFGSGTKLEIKRADAAPTVSIFPPSSEQLTSGGASVVCFL
modifications: IgM constant regions
On to B1, for which the “inhibition of liver metastasis (CD45 staining)” value is on record as 4-5 fold.

These data come from patent publication US11161912B2, “Heparanase-neutralizing monoclonal antibodies” (Technion Research & Development Foundation Limited, priority 2015, dated 2021).
